The record followed here is publication doi:10.1101/2023.08.04.552031, “Oligomerization and positive feedback on membrane recruitment encode dynamically stable PAR-3 asymmetries in the C. elegans zygote” (bioRxiv, 2023).

Data set [1] concerns the molecule itself. The experiment in a line: particle intensities calibrated to single GFP molecules (near-TIRF imaging of living embryos); posterior membrane, where PAR-3 density is lower; homozygous par-1 mutant embryos, late maintenance phase; streaming mode, 100% laser power, 50 msec exposure; features binned by intensity against the mean single molecule intensity after photobleaching; size distribution fitted to An = A1 α^n−1.

Data set [2] concerns the molecule itself. In words: particle intensities calibrated to single GFP molecules (near-TIRF imaging of living embryos); anterior membrane, where PAR-3 density is higher; homozygous par-1 mutant embryos, late maintenance phase; streaming mode, 100% laser power, 50 msec exposure; features binned by intensity against the mean single molecule intensity after photobleaching; size distribution fitted to An = A1 α^n−1.

Data set [3] concerns the molecule itself. The experiment in a line: single molecule tracking and release curves (near-TIRF imaging of living embryos); single PAR-3::GFP molecules, 100% laser power, 50 msec exposures, duty ratio of exposure varied; release curves fitted to exponentials from tmin = 1 sec; linear fit kops = kdep + dr * kpb, the intercept is kdep (depolymerization of a subunit from membrane-bound oligomers); also in par-6(RNAi) and cdc-42(RNAi) embryos, no significant ….

B1: PAR-3::GFP, endogenously tagged (C-terminal fusion of GFP to PAR-3 from the endogenous locus) (natural protein, C. elegans, UniProt Q17353 1-1379, looked up)
chain: MSASSTSSSSTSCPEGGEPSGSCKSSDEGESTLKKRMQQYGIASGYANSSISTLDRSQYQSLPLNGTRRVTVQFGRMKIVVPWKESDQTVGQLADAALLRYKKARGMANEDRIHVHRLECASDGGILDMDDVLEEVFDLNYDQILAITDEANGGSTTPTYSQIQKQQHHYAQPLPYARKFDGGPSTPIASAFGSVTVNHQAHRAASPYNVGFARSNSRDFAPQPTHSKERRDSVVEVSSFDQIPQSGLRVSTPKPSRQSEDVIDGKPMNQPILRSSLRTEASGSRTEEATPVKQSRVTLSPEVEKKLAEQDERKSERRKHYDKNPGRFARGSDRKSRITDALLDARDRIADQLESQNPAEETKSQMIRVKIDQGPMPGTSLVTFPPIPEKSENEKQLGIEVNAVFDESSELPGTSEPTKLSSVQIMKIEDGGRIAKDGRIRVGDCIVAIDGKPVDQMSIIRVRASISDLAAVTSRPVTLIINRSLESFLEQESSAKPIQSALQQANTQYIGHTTVVELIKSSNGFGFTVTGRETAKGERLFYIGTVKPYGVALGHLKSGDRLLEINGTPTGQWTQSEIVEKLKETMVGEKIKFLVSRVSQSAIMSTSASSENKENEETLKVVEEEKIPQKLPLPALMTPPVPKDTPALSPSGASRFEIVIPFINGSSSAGLGVSLKARVSKKSNGSKVDCGIFIKNVMHGGAAFKEGGLRVDDRIVGVEDIDLEPLDNREAQAALAKKLKEVGMISSNVRLTISRYNECNPGQISRDLSRITVDASSPSPSSRMSSHTAPDSLLPSPATRGTSSSGADSSHSRQSSASSAVPAVPARLTERDSIVSDGTSRNDESELPDSADPFNREGLGRKSLSEKRGMGAAADPQHIKLFQDIKHQRQNSAPTSSTQKRSKSQPRSSSQRNYRSPMKLVDLPTTAAASASTNSQNLDDSDMLNRRSQSMESINRPVESILRGTGQIPTGSSSKVQFMQAASPDQHPFPPGAALLRLKNEESRSRDKSRRKSMGNPFSAMRNFFGFGSKSRDASPEKTPTESVQLRSVERPKSIIDERNNGSSERAPPPLPPHQSQRRGSGGNVFVDYGEPYGLIPQYPHNTTSGYESYADSELYDRYAAHRYHPRGGPIIDEDEYIYRQQSTSGNSPINTSSYVNYGLPASNAYHVGSRIPPQTSSGSISKTSGAMRRVYPAEYDEDVAYHQQIPQQSTRYQQGSGSGRGNADYHHMFNSWFAYTGGGAVGAAPVIKSSYGSSPVRIAAASAIERGESFVVEPVSGSSASATDRRGRSTSSGAVASGSSSTGFQYAAKEKYADARSGKFNGGSTRLFIPRHGGGLSAAAFATNFGGEAYETRGGGAGGSPSQYRRRDQGPPHRFPQY
notes: PAR-3, C. elegans, oligomeric scaffold protein; expressed from the endogenous locus; Oligomers of variable size (exponential size distribution) at the cell membrane; also called endogenously-tagged PAR-3::GFP; par-1; source: expressed from the endogenous locus in C. elegans, observed in living one-cell embryos; not shown: GFP, C-terminal, kept
Turning to B1, the stoichiometry N (commonly a count of units in the complex or per binding partner) is 1.65 ± 0.16 subunits (mean oligomer size) in data set [1] and 3.48 ± 0.65 subunits (mean oligomer size) in data set [2].

B2: PAR-3::GFP, transgenic (natural protein, C. elegans, UniProt Q17353 1-1379, looked up)
chain: B1 chain
notes: PAR-3, C. elegans; transgenically expressed; The oligomers from which single labelled molecules depolymerise probably also hold unlabelled PAR-3 of the embryo; also called transgenic PAR-3::GFP; full length PAR-3::GFP
Take B2: in data set [3], the koff (usually the first-order rate constant of dissociation) came out at 0.08 s⁻¹.
